According to article doi:10.1101/333070:

Biological target: mouse proNGF (mouse) (UniProt P01139)
Test: SAXS

Substance: mouse proNGF (from UniProt P01139 19-241) (natural protein)
- stoichiometry N: 2
